The record followed here is ChEMBL document CHEMBL4680222, “Sensitive fluorogenic substrates for sirtuin deacylase inhibitor discovery” (Eur J Med Chem, 2020).

Compound in data set [1]: CCCCCCCCCCCCCC(=O)NCCCC[C@H](NC(=O)OCc1ccccc1)C(=O)Nc1ccc2c(C)cc(=O)oc2c1
The data set is described as follows: (§1) Substrate activity at human N-terminal His-tagged SIRT2 (56 to 356 residues) expressed in Escherichia coli assessed as Km measured after 1 hr in presence of NAD+ and trypsin by Michaelis-Menten kinetic model based fluorescence assay.

Compound in data set [2]: CC(=O)NCCCC[C@H](NC(=O)[C@H](CC(C)C)NC(=O)[C@H](CCCCN)NC(=O)[C@H](Cc1ccc(O)cc1)NC(C)=O)C(=O)Nc1ccc2c(C)cc(=O)oc2c1
The description is as §1.

Compound in data set [3]: CC[C@H](C)[C@H](NC(=O)[C@H](CC(C)C)NC(=O)[C@H](CCCNC(=N)N)NC(C)=O)C(=O)N[C@@H](CCCCNC(C)=O)C(=O)Nc1ccc2c(C)cc(=O)oc2c1
The data set is described as §1.

Compound in data set [4]: CCCCCCCCCC(=O)NCCCC[C@H](NC(=O)[C@@H](NC(=O)[C@H](CO)NC(=O)[C@H](CO)NC(C)=O)[C@@H](C)CC)C(=O)Nc1ccc2c(C)cc(=O)oc2c1
The data set is described as §1.

Compound in data set [5]: CCCCCCCCCC(=O)NCCCC[C@H](NC(=O)[C@H](CC(=O)O)NC(=O)[C@@H](NC(=O)[C@H](CCC(=O)O)NC(C)=O)[C@@H](C)O)C(=O)Nc1ccc2c(C)cc(=O)oc2c1
The description is as §1.

Compound in data set [6]: CC(=O)NCCCC[C@H](NC(=O)OCc1ccccc1)C(=O)Nc1ccc2c(C)cc(=O)oc2c1
The data set is described as §1.

Compound in data set [7]: CCCCCCCCCCCCCC(=O)NCCCC[C@H](NC(=O)OCc1ccccc1)C(=O)Nc1ccc2c(C)cc(=O)oc2c1
Description: (§2) Substrate activity at human N-terminal His-tagged SIRT2 (56 to 356 residues) expressed in Escherichia coli assessed as ratio of Kcat to Km measured after 1 hr in presence of NAD+ and trypsin by Michaelis-Menten kinetic model based fluorescence assay.

Compound in data set [8]: CC(=O)NCCCC[C@H](NC(=O)[C@H](CC(C)C)NC(=O)[C@H](CCCCN)NC(=O)[C@H](Cc1ccc(O)cc1)NC(C)=O)C(=O)Nc1ccc2c(C)cc(=O)oc2c1
The data set is described as §2.

Compound in data set [9]: CC[C@H](C)[C@H](NC(=O)[C@H](CC(C)C)NC(=O)[C@H](CCCNC(=N)N)NC(C)=O)C(=O)N[C@@H](CCCCNC(C)=O)C(=O)Nc1ccc2c(C)cc(=O)oc2c1
Described as §2.

Compound in data set [10]: CCCCCCCCCC(=O)NCCCC[C@H](NC(=O)[C@@H](NC(=O)[C@H](CO)NC(=O)[C@H](CO)NC(C)=O)[C@@H](C)CC)C(=O)Nc1ccc2c(C)cc(=O)oc2c1
The data set is described as §2.

Compound in data set [11]: CCCCCCCCCC(=O)NCCCC[C@H](NC(=O)[C@H](CC(=O)O)NC(=O)[C@@H](NC(=O)[C@H](CCC(=O)O)NC(C)=O)[C@@H](C)O)C(=O)Nc1ccc2c(C)cc(=O)oc2c1
The description is as §2.

Compound in data set [12]: CC(=O)NCCCC[C@H](NC(=O)OCc1ccccc1)C(=O)Nc1ccc2c(C)cc(=O)oc2c1
The description is as §2.

Compound in data set [13]: CCCCCCCCCCCCCC(=O)NCCCC[C@H](NC(=O)OCc1ccccc1)C(=O)Nc1ccc2c(C)cc(=O)oc2c1
Description: (§3) Substrate activity at human N-terminal His-tagged SIRT2 (56 to 356 residues) expressed in Escherichia coli assessed as Vmax measured after 1 hr in presence of NAD+ and trypsin by Michaelis-Menten kinetic model based fluorescence assay.

Compound in data set [14]: CC(=O)NCCCC[C@H](NC(=O)[C@H](CC(C)C)NC(=O)[C@H](CCCCN)NC(=O)[C@H](Cc1ccc(O)cc1)NC(C)=O)C(=O)Nc1ccc2c(C)cc(=O)oc2c1
The description is as §3.

Compound in data set [15]: CC[C@H](C)[C@H](NC(=O)[C@H](CC(C)C)NC(=O)[C@H](CCCNC(=N)N)NC(C)=O)C(=O)N[C@@H](CCCCNC(C)=O)C(=O)Nc1ccc2c(C)cc(=O)oc2c1
The data set is described as §3.

Compound in data set [16]: CCCCCCCCCC(=O)NCCCC[C@H](NC(=O)[C@@H](NC(=O)[C@H](CO)NC(=O)[C@H](CO)NC(C)=O)[C@@H](C)CC)C(=O)Nc1ccc2c(C)cc(=O)oc2c1
The data set is described as §3.

Compound in data set [17]: CCCCCCCCCC(=O)NCCCC[C@H](NC(=O)[C@H](CC(=O)O)NC(=O)[C@@H](NC(=O)[C@H](CCC(=O)O)NC(C)=O)[C@@H](C)O)C(=O)Nc1ccc2c(C)cc(=O)oc2c1
Described as §3.

Compound in data set [18]: CC(=O)NCCCC[C@H](NC(=O)OCc1ccccc1)C(=O)Nc1ccc2c(C)cc(=O)oc2c1
Described as §3.

Compound in data set [19]: CCCCCCCCCCCCCC(=O)NCCCC[C@H](NC(=O)OCc1ccccc1)C(=O)Nc1ccc2c(C)cc(=O)oc2c1
The data set is described as follows: (§4) Substrate activity at human N-terminal His-tagged SIRT2 (56 to 356 residues) expressed in Escherichia coli assessed as Kcat measured after 1 hr in presence of NAD+ and trypsin by Michaelis-Menten kinetic model based fluorescence assay.

Compound in data set [20]: CC(=O)NCCCC[C@H](NC(=O)[C@H](CC(C)C)NC(=O)[C@H](CCCCN)NC(=O)[C@H](Cc1ccc(O)cc1)NC(C)=O)C(=O)Nc1ccc2c(C)cc(=O)oc2c1
The data set is described as §4.

Compound in data set [21]: CC[C@H](C)[C@H](NC(=O)[C@H](CC(C)C)NC(=O)[C@H](CCCNC(=N)N)NC(C)=O)C(=O)N[C@@H](CCCCNC(C)=O)C(=O)Nc1ccc2c(C)cc(=O)oc2c1
Described as §4.

Compound in data set [22]: CCCCCCCCCC(=O)NCCCC[C@H](NC(=O)[C@@H](NC(=O)[C@H](CO)NC(=O)[C@H](CO)NC(C)=O)[C@@H](C)CC)C(=O)Nc1ccc2c(C)cc(=O)oc2c1
Described as §4.

Compound in data set [23]: CCCCCCCCCC(=O)NCCCC[C@H](NC(=O)[C@H](CC(=O)O)NC(=O)[C@@H](NC(=O)[C@H](CCC(=O)O)NC(C)=O)[C@@H](C)O)C(=O)Nc1ccc2c(C)cc(=O)oc2c1
The description is as §4.

Compound in data set [24]: CC(=O)NCCCC[C@H](NC(=O)OCc1ccccc1)C(=O)Nc1ccc2c(C)cc(=O)oc2c1
Described as §4.

B1: NAD-dependent protein deacetylase sirtuin-2 (Homo sapiens), Q8IXJ6 (protein)
chain: MAEPDPSHPLETQAGKVQEAQDSDSDSEGGAAGGEADMDFLRNLFSQTLSLGSQKERLLDELTLEGVARYMQSERCRRVICLVGAGISTSAGIPDFRSPSTGLYDNLEKYHLPYPEAIFEISYFKKHPEPFFALAKELYPGQFKPTICHYFMRLLKDKGLLLRCYTQNIDTLERIAGLEQEDLVEAHGTFYTSHCVSASCRHEYPLSWMKEKIFSEVTPKCEDCQSLVKPDIVFFGESLPARFFSCMQSDFLKVDLLLVMGTSLQVQPFASLISKAPLSTPRLLINKEKAGQSDPFLGMIMGLGGGMDFDSKKAYRDVAWLGECDQGCLALAELLGWKKELEDLVRREHASIDAQSGAGVPNPSTSASPKKSPPPAKDEARTTEREKPQ
In general, Km refers to the substrate concentration at which the rate is half of its maximum. Usually kcat/Km stands for the turnover number divided by the Michaelis constant. What is called Vmax is the top rate of the reaction or transport when substrate is in excess. One may read the kcat as the maximal rate divided by the concentration of active sites. Turning to B1, the Km in data set [1] was 1.7 µM; in data set [2], 106 µM; in data set [3], 41.6 µM; in data set [4], 1.2 µM; in [5], 16.5 µM; in [6], 274 µM. Besides, the kcat/Km came to 3.2 M⁻¹ s⁻¹ in data set [7]; 129 M⁻¹ s⁻¹ in [8]; 289 M⁻¹ s⁻¹ in [9]; 3530 M⁻¹ s⁻¹ in data set [10]; 1250 M⁻¹ s⁻¹ in data set [11]; 3.5 M⁻¹ s⁻¹ in data set [12]. Moreover, the Vmax in data set [13] was determined as 1.63 nM/min; in [14], 81.9 nM/min; in [15] it was 36.1 nM/min; in data set [16], 25.5 nM/min; in data set [17] it was 61.9 nM/min; in data set [18], 26.3 nM/min. The kcat in data set [19] is 0.054 10^-3/s; in data set [20], 13.6 10^-3/s; in [21], 12 10^-3/s; in data set [22] it was 4.25 10^-3/s; in [23], 20.6 10^-3/s; in data set [24], 0.98 10^-3/s.
